Residue numbers refer to the chain shown, from its start. Names and notes keep the numbering of the source. Values joined by “and” are separate entries in the source; they are usually repeats but may differ in a detail not shown here. Identical values can stand only once. Where no end group is shown, it is not given here. [ ]: non-standard residue; d: D form. pY = N[C@@H](Cc1ccc(OP(=O)(O)O)cc1)C(=O)O
Legend:
mini PTPN21-EGFP [1] = biological target: mini PTPN21-EGFP (UniProt Q16825); test: MST
[2] = biological target: T1, PTPN21 FERM domain (FERM^PTPN21) (Homo sapiens, UniProt Q16825); test: microscale thermophoresis (FERM-EGFP); type: binding
T1 construct: FERM domain, residues 21 to 319 (18 to 319 stated for the crystal); E. coli Rosetta (DE3), His-sumo tag removed; C-terminal EGFP fusion for MST; Flag-tagged for PIP-strips; monomer
T1 sequence (Q16825 21-319): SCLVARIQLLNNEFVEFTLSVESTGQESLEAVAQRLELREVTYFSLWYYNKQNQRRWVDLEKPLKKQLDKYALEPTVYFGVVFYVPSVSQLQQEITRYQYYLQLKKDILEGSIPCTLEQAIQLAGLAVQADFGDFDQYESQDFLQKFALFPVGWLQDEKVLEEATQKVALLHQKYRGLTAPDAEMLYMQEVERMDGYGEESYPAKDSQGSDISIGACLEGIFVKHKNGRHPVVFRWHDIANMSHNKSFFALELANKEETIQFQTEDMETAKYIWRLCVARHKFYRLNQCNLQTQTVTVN

PTPN21 PTP C1108S [3] = biological target: T2, PTPN21 PTP C1108S (UniProt Q16825 872-1174, C1108S); test: crystal structure; mini PTPN21 C1108S: FERM and PTP joined on one chain by a flexible linker, hanging drop, 4°C; details: both partners purified
T2 construct: also called PTP^PTPN21 C1108S; source: E. coli Rosetta (DE3), purified (as the wild type); not shown: His-sumo, N-terminal, cleaved
T2 sequence (looked up): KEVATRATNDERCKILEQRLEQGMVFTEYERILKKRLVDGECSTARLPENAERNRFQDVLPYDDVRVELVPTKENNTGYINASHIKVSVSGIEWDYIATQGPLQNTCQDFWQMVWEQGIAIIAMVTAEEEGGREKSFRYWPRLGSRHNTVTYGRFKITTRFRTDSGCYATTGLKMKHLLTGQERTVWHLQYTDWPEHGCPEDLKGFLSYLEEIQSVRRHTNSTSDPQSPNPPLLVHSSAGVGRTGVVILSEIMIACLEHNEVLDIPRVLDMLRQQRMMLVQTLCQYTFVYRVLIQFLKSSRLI

PTPN21 PTP-EGFP [4] = biological target: T3, PTPN21 PTP-EGFP (UniProt Q16825 872-1174); test: MST; PTP-EGFP fixed at 80 nM, FERM titrated from 300 μM to 0.09 nM; 20 mM Hepes pH 7.0, 150 mM NaCl, 0.3 mM TCEP, 1.5 mM BSA; mutants measured similarly; details: both partners purified
T3 construct: also called WT PTP-EGFP; source: E. coli Rosetta (DE3), purified (as the untagged domain); not shown: His-sumo, N-terminal, cleaved; EGFP, C-terminal, kept
T3 sequence (looked up): T2 sequence (looked up) with S237C

mini PTPN21-EGFP [5] = biological target: T4, mini PTPN21-EGFP (UniProt Q16825 878-1174; Q16825 878-1174); test: MST; + Ins(1,3)P2
T4 chain: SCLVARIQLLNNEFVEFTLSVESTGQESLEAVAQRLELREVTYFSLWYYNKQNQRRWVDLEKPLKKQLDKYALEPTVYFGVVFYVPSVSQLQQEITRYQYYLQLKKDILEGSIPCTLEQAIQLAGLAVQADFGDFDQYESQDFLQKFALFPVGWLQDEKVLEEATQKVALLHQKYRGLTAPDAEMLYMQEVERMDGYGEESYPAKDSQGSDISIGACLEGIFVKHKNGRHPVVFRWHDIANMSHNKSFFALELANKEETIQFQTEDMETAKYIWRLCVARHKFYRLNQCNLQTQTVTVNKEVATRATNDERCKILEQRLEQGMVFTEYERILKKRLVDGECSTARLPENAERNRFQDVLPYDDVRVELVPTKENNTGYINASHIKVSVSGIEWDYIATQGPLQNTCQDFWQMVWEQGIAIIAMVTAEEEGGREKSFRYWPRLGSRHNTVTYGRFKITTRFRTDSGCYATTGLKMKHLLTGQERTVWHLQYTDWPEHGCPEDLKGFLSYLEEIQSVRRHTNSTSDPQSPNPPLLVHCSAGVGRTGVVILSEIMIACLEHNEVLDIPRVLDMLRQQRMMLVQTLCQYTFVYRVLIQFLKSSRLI

PTPN21 PTP-EGFP [6] = biological target: T3, PTPN21 PTP-EGFP; test: MST; details: both partners purified
PTPN21 FERM-EGFP = biological target: T5, PTPN21 FERM-EGFP (UniProt Q16825 21-319); test: MST
T5 chain: T1 sequence (Q16825 21-319)

[7] = substrate: Cc1cc(=O)oc2c(F)c(OP(=O)(O)O)c(F)cc12; test: fluorescent phosphatase assay, Michaelis-Menten; type: biochemical, Homo sapiens; details: 50 mM Hepes pH 7.0, 150 mM NaCl, 1 mM EDTA, 2 mM DTT, RT
PTPN21 PTP C1108S [8] = biological target: T2, PTPN21 PTP C1108S; test: crystal structure; PTP C1108S with twofold molar excess of Src pY530 peptide, hanging drop, 4°C; details: both partners purified
PTPN21 PTP C1108S-EGFP [9] = biological target: T6, PTPN21 PTP C1108S-EGFP (UniProt Q16825 872-1174, C1108S); test: MST; fluorescent PTP mutant-EGFP (80 nM) mixed with an increasing amount of Src pY530 peptide; 20 mM Hepes pH 7.0, 150 mM NaCl, 0.3 mM TCEP, 1.5 mM BSA; details: both partners purified
T6 construct: also called PTP^PTPN21 C1108S; source: E. coli Rosetta (DE3), purified (as the wild type); not shown: His-sumo, N-terminal, cleaved; EGFP, C-terminal, kept
T6 sequence (looked up): T2 sequence (looked up)

[10] = biological target: T7, PTPN21 PTP E1067D C1108S-EGFP (UniProt Q16825 872-1174, E1067D | C1108S); test: as above; details: both partners purified
T7 construct: also called PTP^PTPN21 C1108S E1067D; source: E. coli Rosetta (DE3), purified (as the wild type); not shown: His-sumo, N-terminal, cleaved; EGFP, C-terminal, kept
T7 sequence (looked up): T2 sequence (looked up) with E196D

PTPN21 PTP R1114Q [11] = biological target: T8, PTPN21 PTP R1114Q (UniProt Q16825 872-1174, R1114Q); test: as above; details: both partners purified
T8 construct: also called PTP^PTPN21 R1114Q; source: E. coli Rosetta (DE3), purified (as the wild type)
T8 sequence (looked up): T2 sequence (looked up) with S237C, R243Q

[12] = biological target: T9, PTPN21 PTP E1067D C1108S-EGFP (UniProt Q16825 872-1174, E1067D | C1108S); test: MST
T9 sequence: T2 sequence (looked up) with E196D

PTPN21 PTP C1108S-EGFP [13] = biological target: T10, PTPN21 PTP C1108S-EGFP (UniProt Q16825 872-1174, C1108S); test: MST
T10 sequence: T2 sequence (looked up)

PTPN21 PTP R1114Q [14] = biological target: T11, PTPN21 PTP R1114Q (UniProt Q16825 872-1174, R1114Q); test: MST
T11 sequence: T2 sequence (looked up) with S237C, R243Q

mini PTPN21-EGFP [15] = biological target: T4, mini PTPN21-EGFP; test: MST

Question: For “HPV18 E7 CR3 domain (from UniProt P06788 54-105) (domain or fragment)”, which Kd (mini PTPN21-EGFP [1]) is on record?
Answer: 49 nM

Question: Which Kd [2] does the source give for `O=P(O)(O)O[C@@H]1[C@@H](O)[C@H](OP(=O)(O)O)[C@H](O)[C@H](O)[C@H]1O` [ins(1,5)P2] here?
Answer: ~1320 nM

Question: With “HPV18 E7 protein, full length (from UniProt P06788 1-105) (natural protein)” as the molecule, how does the Kd (mini PTPN21-EGFP [1]) read?
Answer: 200 nM

Question: Which Kd [2] does the source give for `O=P(O)(O)O[C@@H]1[C@H](O)[C@H](OP(=O)(O)O)[C@@H](O)[C@H](O)[C@H]1O` [ins(1,3)P2] here?
Answer: ~6110 nM

B1: PTPN21 FERM domain (residues 21 to 319) (domain or fragment, UniProt Q16825 21-319, looked up)
chain: T1 sequence (Q16825 21-319)
notes: also called FERM^PTPN21; source: E. coli Rosetta (DE3), purified (Ni-NTA, source Q, Superdex 200); not shown: His-sumo, N-terminal, cleaved
Question: Does B1 bind (PTPN21 PTP C1108S [3])?
Answer: binds

Question: And the Kd (PTPN21 PTP-EGFP [4])?
Answer: ~7600 nM

B2: HPV18 E7 CR3 domain (domain or fragment)
chain: AEPQRHTMLCMCCKCEARIKLVVESSADDLRAFQQLFLNTLSFVCPWCASQQ
notes: source: E. coli Rosetta (DE3), purified (as the PTPN21 domains); not shown: His-sumo, N-terminal, cleaved
Question: Which Kd (mini PTPN21-EGFP [5]) does the source give for B2 here?
Answer: 40.3 nM

Question: And the Kd (PTPN21 PTP-EGFP [6])?
Answer: ~2.8 nM

B3: PTPN21 PTP domain (residues 872 to 1174) (domain or fragment)
chain: T2 sequence (looked up) with S237C
Question: How did the Kd (PTPN21 FERM-EGFP) turn out when B3 was run?
Answer: 2310 nM and 3480 nM and 1610 nM

Question: What about the Km [7] of the same molecule?
Answer: 28.6 µM

Question: And the kcat [7]?
Answer: 1.2 s⁻¹

B4: PTPN21 PTP domain (PTP^PTPN21) (Homo sapiens; E1067D) (protein)
chain: T2 sequence (looked up) with E196D, S237C
notes: PTP (phosphatase) domain, residues 872 to 1174; E. coli Rosetta (DE3), His-sumo tag removed
Question: With B4 as the molecule, how does the Km ([7]; 0.2 nM enzyme) read?
Answer: 250.93 ± 15.69 µM

Question: And the kcat ([7]; 0.2 nM enzyme)?
Answer: 38.32 ± 4.66 s⁻¹

B5: Src pY530 peptide (peptide)
peptide: STEPQ[pY]QPGENL
notes: also called Src pY530 synthetic peptide; Peptide Src pY530; source: synthetic peptide (ChinaPeptides Co. Ltd.)
Question: Does B5 bind (PTPN21 PTP C1108S [8])?
Answer: binds

Question: Does B5 bind (PTPN21 PTP C1108S-EGFP [9])?
Answer: binds

Question: Does B5 bind [10]?
Answer: binds

Question: Does B5 bind (PTPN21 PTP R1114Q [11])?
Answer: binds

Question: And the Kd [12]?
Answer: 5610 nM

Question: And the Kd (PTPN21 PTP C1108S-EGFP [13])?
Answer: 2930 nM

Question: And the Kd (PTPN21 PTP R1114Q [14])?
Answer: 6230 nM

B6: HPV18 E7 protein, full length (natural protein)
chain: MHGPKATLQDIVLHLEPQNEIPVDLLCHEQLSDSEEENDEIDGVNHQHLPARRAEPQRHTMLCMCCKCEARIKLVVESSADDLRAFQQLFLNTLSFVCPWCASQQ
Question: How did the Kd (mini PTPN21-EGFP [5]) turn out when B6 was run?
Answer: 352 nM

Question: What about the Kd (mini PTPN21-EGFP [15]) of the same molecule?
Answer: 215 nM
